From US20260174875A1 (Novo Nordisk A/S, priority 2023, published 2026)
Numbered stars: 1 amine (or outer) side, 2 acyl side, 3 side chain; on linkers, the order of the positions; unused ones are H or OH. Square brackets hold non-standard residues; d marks the D form. Side chains are listed from the residue outwards. * marks the point of attachment. C18 diacid = O=C(O)CCCCCCCCCCCCCCCCC(=O)*; γGlu = O=C(O)[C@H](CCC(=O)[*:2])N[*:1]; Chem. 28 = not defined here; Chem. 29 = not defined here; AEEA = NCCOCCOCC(=O)O; Aib = CC(C)(N)C(=O)O

T1: human GIP receptor (human, UniProt P48546 22-466)
T1 sequence (looked up): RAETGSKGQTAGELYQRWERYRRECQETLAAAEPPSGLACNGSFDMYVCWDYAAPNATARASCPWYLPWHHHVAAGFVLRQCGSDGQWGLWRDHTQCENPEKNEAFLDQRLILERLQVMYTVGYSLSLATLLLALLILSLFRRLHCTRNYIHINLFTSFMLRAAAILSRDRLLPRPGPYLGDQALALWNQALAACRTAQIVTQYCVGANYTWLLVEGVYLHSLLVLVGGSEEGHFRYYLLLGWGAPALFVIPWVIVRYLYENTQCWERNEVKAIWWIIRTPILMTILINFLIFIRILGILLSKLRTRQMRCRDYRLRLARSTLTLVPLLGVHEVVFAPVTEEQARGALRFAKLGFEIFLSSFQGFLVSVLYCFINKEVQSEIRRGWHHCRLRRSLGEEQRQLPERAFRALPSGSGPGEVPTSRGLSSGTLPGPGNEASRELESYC

T2: human amylin-3(a) receptor (human, UniProt P30988 25-474; O60896 24-148)
T2 sequence (looked up) 1: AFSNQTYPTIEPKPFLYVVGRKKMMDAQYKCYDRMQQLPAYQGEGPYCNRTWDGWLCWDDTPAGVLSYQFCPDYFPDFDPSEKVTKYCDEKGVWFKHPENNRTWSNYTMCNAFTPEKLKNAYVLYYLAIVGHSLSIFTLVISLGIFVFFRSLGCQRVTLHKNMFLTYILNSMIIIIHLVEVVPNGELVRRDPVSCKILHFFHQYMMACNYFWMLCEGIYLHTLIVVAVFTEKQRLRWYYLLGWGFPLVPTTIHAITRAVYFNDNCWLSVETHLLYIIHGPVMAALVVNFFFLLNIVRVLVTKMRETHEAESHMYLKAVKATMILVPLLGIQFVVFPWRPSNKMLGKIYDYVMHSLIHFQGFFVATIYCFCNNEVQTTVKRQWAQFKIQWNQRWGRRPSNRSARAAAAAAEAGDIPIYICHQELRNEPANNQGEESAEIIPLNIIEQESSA
T2 sequence (looked up) 2: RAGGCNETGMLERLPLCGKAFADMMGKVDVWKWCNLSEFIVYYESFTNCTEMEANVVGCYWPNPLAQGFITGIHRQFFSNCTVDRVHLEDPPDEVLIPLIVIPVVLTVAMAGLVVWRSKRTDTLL


Legend:
Assay in all cases: cell-based or functional assay
[1] = target: T3, human GLP-1 receptor (human, UniProt P43220 24-463)
[2] = target: T1, human GIP receptor
[3] = target: T2, human amylin-3(a) receptor
[4] = target: T3, human GLP-1 receptor; remark: listed apart in the source
[5] = target: T1, human GIP receptor; remark: listed apart in the source
[6] = target: T2, human amylin-3(a) receptor; remark: listed apart in the source

Binder | hGLP-1R Potency, no HSA, EC50 [pM] [1] | hGIPR Potency, no HSA, EC50 [pM] [2] | hAMYR3 Potency, no HSA, EC50 [pM] [3] | hGLP-1R Potency, 1% HSA, EC50 [pM] [4] | hGIPR Potency, 1% HSA, EC50 [pM] [5] | hAMYR3 Potency, 1% HSA, EC50 [pM] [6]
Compound 19 (reading uncertain) peptide: Y[Aib]EGTFTSDYSILLEEQAAREFIEWLLAGGPSK(Chem. 28)GEASELSTAALGRLSAELHRLATLPRTETGSGSP-NH2 | 57.9 pM | 9.44 pM | 4.24 pM | – | – | –
Compound 23 (reading uncertain) peptide: Y[Aib]EGTFTSDYSILLEEQAAREFIEWLLAGGPSK(Chem. 28)GALAQTLGTNEASELSTAALGRLSAELHELATLPRTETGSGSP-NH2 | 15.3 pM | 1.2 pM | 5.17 pM | – | – | –
Compound 28 (reading uncertain) peptide: Y[Aib]EGTFTSDYSILLEEQAAREFIEWLLAGGPSK(Chem. 28)GEASELSTAALARLSAELHRLATLPRTETGSGSP-NH2 | 96 pM | 3.5 pM | 2.28 pM | – | – | –
Compound 27 (reading uncertain) peptide: Y[Aib]EGTFTSDYSILLEEQAAREFIEWLLAGGPSK(Chem. 28)GEASELSTAQLGRLSAELHRLATLPRTETGSGSP-NH2 | 26.2 pM | 2.11 pM | 3.82 pM | – | – | –
Compound 20 (reading uncertain) peptide: Y[Aib]EGTFTSDYSILLEEQAAREFIEWLLAGGPSK(Chem. 29)GASELSTAALGRLSAELHRLATLPRTETGSGSP-NH2 | 40.6 pM | 4.82 pM | 3.65 pM | – | – | –
Compound 29 (reading uncertain) peptide: Y[Aib]EGTFTSDYSILLEEQAAREFIEWLLAGGPSK(Chem. 28)GEASELSTAALGRLSAELHYLATLPRTETGSGSP-NH2 | 27.1 pM | 2.62 pM | 3.09 pM | – | – | –
Compound 24 (reading uncertain) peptide: Y[Aib]EGTFTSDYSILLEEQAAREFIEWLLAGGPSK(Chem. 28)GALAQTLFVNQASELSTAALGRLSAELHELATLPRTETGSGSP-NH2 | 51.5 pM | 2.34 pM | 4.24 pM | – | – | –
Compound 46 (reading uncertain) peptide: H[Aib]HGTFTSDYSILLEEQAAREFIEWLLAGGPSK(Chem. 28)GAGQAPGQAPGASHLSTAALGRLSAELHRLATLPRTETGSGSP-NH2 | 4.59 pM | 5.42 pM | 4.41 pM | – | – | –
Compound 36 (reading uncertain) peptide: H[Aib]HGTFTSDYSILLEEQAAREFIEWLLAGGPSK(Chem. 28)GEASHLSTAQTARLSAELHELATLPRTETGSGSP-NH2 | 3.19 pM | 1.96 pM | 3.84 pM | 208 pM | 226 pM | 137 pM
Compound 18 (reading uncertain) peptide: Y[Aib]EGTFTSDYSILLEEQAAREFIEWLLAGGPSK(Chem. 29)GEASELSTAALGRLSAELHRLATLPRTETGSGSP-NH2 | 52.8 pM | 7.25 pM | 3.93 pM | – | – | –
Compound 66 (peptide) peptide: H[Aib]HGTFTSDYSILLEEQAAREFIEWLLAGGPSK([AEEA-AEEA-γGlu-C18 diacid])GEASQLSTAALGRLSAELHHLATLPRTETGSGSP-NH2 | 5.25 pM | 2.39 pM | 2.32 pM | – | – | –
Compound 21 (reading uncertain) peptide: Y[Aib]EGTFTSDYSILLEEQAAREFIEWLLAGGPSK(Chem. 28)GALAQTLAQTLASELSTAALGRLSAELHELATLPRTETGSGSP-NH2 | 41.2 pM | 8.63 pM | 12 pM | – | – | –
Compound 31 (reading uncertain) peptide: Y[Aib]EGTFTSDYSILLEEQAAREFIEWLLAGGPSSK(Chem. 28)APPPSGGGEASELSTAALGRLSAELHRLATLPRTETGSGSP-NH2 | 47.8 pM | 4.73 pM | 2.69 pM | – | – | –
Compound 22 (reading uncertain) peptide: H[Aib]HGTFTSDYSILLEEQAAREFIEWLLAGGPSK(Chem. 28)GAPPPSLAQTLAQTLASELSTAALGRLSAELHELATLPRTETGSGSP-NH2 | 11.3 pM | 35.8 pM | 10.9 pM | – | – | –
Compound 54 (reading uncertain) peptide: Y[Aib]EGTFTSDYSILLEEQAAREFIEWLLAGGPSSGAGQAPGQAPGASK(Chem. 28)LSTAQTQRLSAELHRLATLPRTETGSGSP-NH2 | 28.8 pM | 5.56 pM | 3.02 pM | – | – | –
Compound 32 (reading uncertain) peptide: Y[Aib]EGTFTSDYSILLEEQAAREFIEWLLAGGPSK(Chem. 28)GAEASELSTAALGRLSAELHELATLPRTETGSGSP-NH2 | 27.6 pM | 8.09 pM | 10.1 pM | – | – | –
Compound 30 (reading uncertain) peptide: H[Aib]HGTFTSDYSILLEEQAAREFIEWLLAGGPSK(Chem. 28)GAPPPSGGGEASELSTAALGRLSAELHRLATLPRTETGSGSP-NH2 | 6.37 pM | 6.8 pM | 2.28 pM | – | – | –
Compound 13 (peptide) peptide: Y[Aib]EGTFTSDYSILLEEQAAREFIEWLLAGGPSK([AEEA-AEEA-γGlu-C18 diacid])GAPPPSGGGGASELSTAALGRLSAELHRLATLPRTETGSGSP-NH2 | 37.9 pM | 2.4 pM | 2.26 pM | – | – | –
Compound 25 (reading uncertain) peptide: H[Aib]HGTFTSDYSILLEEQAAREFIEWLLAGGPSK(Chem. 28)GEASELSTAALGRLSAELHRLATLPRTETGSGSP-NH2 | 2.87 pM | 4.27 pM | 3.22 pM | – | – | –
